Consider one substance from US5917018.

The assay concerns the target natural class I heavy chain molecules. The experiment in a line: binding to class I heavy chain, method not given.

In turn, recombinant murine β2-microglobulin gave an affinity against that of human β2-microglobulin of 5 times lower.
